# Assay results: article PMC11612440 (2024)
# Like-named read-outs stand apart in the source and are kept apart here.
# T1: BCL11B protein, MBP-tag-fused recombinant (pETMBP.3C-Bcl11b) (mouse, UniProt Q99PV8 1-884)
# T1 chain: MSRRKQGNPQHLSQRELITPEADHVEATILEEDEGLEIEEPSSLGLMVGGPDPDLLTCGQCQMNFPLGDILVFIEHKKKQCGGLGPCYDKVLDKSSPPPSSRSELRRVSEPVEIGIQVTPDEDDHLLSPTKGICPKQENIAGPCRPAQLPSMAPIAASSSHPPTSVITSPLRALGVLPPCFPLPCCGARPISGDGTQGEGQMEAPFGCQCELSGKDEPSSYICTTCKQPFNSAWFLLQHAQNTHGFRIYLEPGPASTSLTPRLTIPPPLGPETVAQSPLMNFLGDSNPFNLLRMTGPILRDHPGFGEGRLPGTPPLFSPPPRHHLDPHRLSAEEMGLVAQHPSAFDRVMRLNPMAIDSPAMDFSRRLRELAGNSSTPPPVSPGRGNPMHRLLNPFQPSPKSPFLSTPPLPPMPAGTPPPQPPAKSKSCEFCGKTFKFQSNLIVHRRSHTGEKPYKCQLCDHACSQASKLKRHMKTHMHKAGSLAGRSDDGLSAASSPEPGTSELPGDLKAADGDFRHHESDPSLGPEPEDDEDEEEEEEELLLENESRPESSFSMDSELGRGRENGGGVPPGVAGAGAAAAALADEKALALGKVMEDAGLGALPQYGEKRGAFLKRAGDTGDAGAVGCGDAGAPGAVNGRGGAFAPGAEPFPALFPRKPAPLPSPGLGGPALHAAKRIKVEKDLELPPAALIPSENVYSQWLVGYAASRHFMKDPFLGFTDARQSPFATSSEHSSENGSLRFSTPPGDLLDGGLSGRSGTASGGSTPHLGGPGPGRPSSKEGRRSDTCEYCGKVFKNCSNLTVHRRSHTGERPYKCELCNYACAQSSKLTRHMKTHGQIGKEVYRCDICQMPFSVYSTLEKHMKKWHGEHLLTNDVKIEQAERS
# Experiments:
# [1] = molecular target: T1, BCL11B protein, MBP-tag-fused …; test: SPR
# [2] = molecular target: T1, BCL11B protein, MBP-tag-fused …; test: SPR
Kd [1],Kd [2],Binder
0.609 nM,–,"β-catenin, MBP-tag-fused recombinant (pETMBP.3C-β-catenin) (natural protein) MATQADLMELDMAMEPDRKAAVSHWQQQSYLDSGIHSGATTTAPSLSGKGNPEEEDVDTSQVLYEWEQGFSQSFTQEQVADIDGQYAMTRAQRVRAAMFPETLDEGMQIPSTQFDAAHPTNVQRLAEPSQMLKHAVVNLINYQDDAELATRAIPELTKLLNDEDQVVVNKAAVMVHQLSKKEASRHAIMRSPQMVSAIVRTMQNTNDVETARCTAGTLHNLSHHREGLLAIFKSGGIPALVKMLGSPVDSVLFYAITTLHNLLLHQEGAKMAVRLAGGLQKMVALLNKTNVKFLAITTDCLQILAYGNQESKLIILASGGPQALVNIMRTYTYEKLLWTTSRVLKVLSVCSSNKPAIVEAGGMQALGLHLTDPSQRLVQNCLWTLRNLSDAATKQEGMEGLLGTLVQLLGSDDINVVTCAAGILSNLTCNNYKNKMMVCQVGGIEALVRTVLRAGDREDITEPAICALRHLTSRHQEAEMAQNAVRLHYGLPVVVKLLHPPSHWPLIKATVGLIRNLALCPANHAPLREQGAIPRLVQLLVRAHQDTQRRTSMGGTQQQFVEGVRMEEIVEGCTGALHILARDVHNRIVIRGLNTIPLFVQLLYSPIENIQRVAAGVLCELAQDKEAAEAIEAEGATAPLTELLHSRNEGVATYAAAVLFRMSEDKPQDYKKRLSVELTSSLFRTEPMAWNETADLGLDIGAQGEALGYRQDDPSYRSFHSGGYGQDALGMDPMMEHEMGGHHPGADYPVDGLPDLGHAQDLMDGLPPGDSNQLAWFDTDL"
–,2.42 nM,"MBD3, MBP-tag-fused recombinant (pETMBP.3C-Mbd3) (natural protein) MERKRWECPALPQGWEREEVPRRSGLSAGHRDVFYYSPSGKKFRSKPQLARYLGGSMDLSTFDFRTGKMLMNKMNKSRQRVRYDSSNQVKGKPDLNTALPVRQTASIFKQPVTKITNHPSNKVKSDPQKAVDQPRQLFWEKKLSGLSAFDIAEELVRTMDLPKGLQGVGPGCTDETLLSAIASALHTSTLPITGQLSAAVEKNPGVWLNTAQPLCKAFMVTDDDIRKQEELVQQVRKRLEEALMADMLAHVEELARDGEAPLDKACAEEEEEEEEEEEEPEPERV"
